PMC10022743

Experiments:
Assay in all cases: immunoprecipitation followed by mass spectrometry
Conditions in all cases: 2 h EBSS and 300 nM Torin 1; YKT6 siRNA-treated HEK293T WT cells; read off a plot
NSF = target: NSF
BET1 = target: BET1
VAMP8 = target: VAMP8
VTI1B = target: VTI1B
SEC22B = target: SEC22B
SEC24C = target: SEC24C
SNAP23 = target: SNAP23
NAPA = target: NAPA
STX5 = target: STX5

| Substance | other: Log2 T156A : WT ratio (NSF) | other: Log2 T156A : WT ratio (BET1) | other: Log2 T156A : WT ratio (VAMP8) | other: Log2 T156A : WT ratio (VTI1B) | other: Log2 T156A : WT ratio (SEC22B) | other: Log2 T156A : WT ratio (SEC24C) | other: Log2 T156A : WT ratio (SNAP23) | other: Log2 T156A : WT ratio (NAPA) | other: Log2 T156A : WT ratio (STX5) | other: Log2 T156E : WT ratio (NSF) | other: Log2 T156E : WT ratio (BET1) | other: Log2 T156E : WT ratio (VAMP8) | other: Log2 T156E : WT ratio (VTI1B) | other: Log2 T156E : WT ratio (SEC22B) | other: Log2 T156E : WT ratio (SEC24C) | other: Log2 T156E : WT ratio (SNAP23) | other: Log2 T156E : WT ratio (NAPA) | other: Log2 T156E : WT ratio (STX5) |
| --- | --- | --- | --- | --- | --- | --- | --- | --- | --- | --- | --- | --- | --- | --- | --- | --- | --- | --- |
| HA–YKT6-WT (full-length, siRNA-resistant) (from UniProt O15498) T156A | 2.3 log2 | 0.27 log2 | 1 log2 | 1.4 log2 | 1.9 log2 | 0.67 log2 | 2.8 log2 | 1.6 log2 | 1.2 log2 | – | – | – | – | – | – | – | – | – |
| HA–YKT6-WT (full-length, siRNA-resistant) (from UniProt O15498) T156E | – | – | – | – | – | – | – | – | – | -0.3 log2 | -4.4 log2 | -2 log2 | -0.7 log2 | -1.3 log2 | 0.18 log2 | -1.5 log2 | -0.8 log2 | -0.7 log2 |
